Reference: patent US20250170268A1 (Merck KGaA, published 2025)

Target: T1, Human CEACAM5 protein (human, UniProt P06731 35-702)
T1 sequence: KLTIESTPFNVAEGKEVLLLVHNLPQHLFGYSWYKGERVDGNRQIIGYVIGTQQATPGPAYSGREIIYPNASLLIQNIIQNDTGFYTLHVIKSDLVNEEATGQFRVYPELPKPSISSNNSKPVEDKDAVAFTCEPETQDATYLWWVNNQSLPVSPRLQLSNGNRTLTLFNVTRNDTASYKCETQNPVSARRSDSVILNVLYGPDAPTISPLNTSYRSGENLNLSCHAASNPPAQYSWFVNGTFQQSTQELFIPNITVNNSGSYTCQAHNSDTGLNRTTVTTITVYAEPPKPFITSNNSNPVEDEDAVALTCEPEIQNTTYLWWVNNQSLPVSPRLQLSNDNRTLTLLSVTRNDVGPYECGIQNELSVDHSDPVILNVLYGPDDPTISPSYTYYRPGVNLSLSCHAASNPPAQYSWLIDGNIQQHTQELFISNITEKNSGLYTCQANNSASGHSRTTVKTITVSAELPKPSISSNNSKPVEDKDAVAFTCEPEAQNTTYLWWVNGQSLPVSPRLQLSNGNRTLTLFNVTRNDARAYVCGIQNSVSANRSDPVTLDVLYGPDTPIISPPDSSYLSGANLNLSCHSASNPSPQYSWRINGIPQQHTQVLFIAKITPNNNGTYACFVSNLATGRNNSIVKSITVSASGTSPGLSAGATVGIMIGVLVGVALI
Experiment: cell-based or functional assay

B1: ADC8 (an analog of labetuzumab govitecan) (antibody, human IgG1, kappa)
heavy: not shown
light: DIQLTQSPSSLSASVGDRVTITCKASQDVGTSVAWYQQKPGKAPKLLIYWTSTRHTGVPSRFSGSGSGTDFTFTISSLQPEDIATYYCQQYSLYRSFGQGTKVEIKRTVAAPSVFIFPPSDEQLKSGTASVVCLLNNFYPREAKVQWKVDNALQSGNSQESVTEQDSKDSTYSLSSTLTLSKADYEKHKVYACEVTHQGLSSPVTKSFNRGEC
modifications: purchased drug-linker on reduced interchain cysteines; purchased drug-linker on reduced interchain cysteines, DAR of 7.7 for the whole antibody
SPECIFICITY FACTOR (IC50 in MDA-MB-231 divided by IC50 in MKN-45): 2.5 fold | SPECIFICITY FACTOR (IC50 in MDA-MB-231 divided by IC50 in SK-CO-1): 4.8 fold | SPECIFICITY FACTOR (IC50 in MDA-MB-231 divided by IC50 in SNU-16): 1.8 fold
